The record followed here is patent US20220347267A1, “METHODS TO IMPROVE PATIENT RESPONSE TO IMMUNE CHECKPOINT INHIBITORS AND FUNCTIONAL TESTS TO PREDICT RESPONSE” (Biomarker Strategies, LLC, priority 2019, published 2022).

The test has as its system various NSCLC, HNSCC, breast cancer, melanoma, colorectal cancer, and pancreatic cancer cell lines. Briefly: PD-L1 western blot after modulators, summary over all samples. The note with it: depending on the sample, summary of Table 3. The test is classed as cell-based, human. The text has this:
Cell lines were acquired from ATCC, Sigma, or DSMZ. Human non-small cell lung carcinoma (NSCLC) cell lines H292 (ATCC no. CRL-1848.), H1299 (ATCC no. CRL-5803), H520 (ATCC no. CRL-5811), CALU6 (ATCC no. HTB-56), H1975 (ATCC no. CRL-5908), H460 (ATCC no. HTB-177), H2126 (ATCC no. CCL-256), H1650 (ATCC no. CRL-5883), and H2087 (ATCC no. CRL-5922) were used for this experiment along with head and neck squamous cell carcinoma (HNSCC) cell lines BHY (DSMZ ACC 404), CAL27 (ATCC no. CRL-2095), KYSE410 (Sigma), and A253 (ATCC no. HTB-41), melanoma cell lines A375 (ATCC no. CRL-1619), COL0853 (Sigma), and MM127 (Sigma) pancreatic cancer cell lines BXPC3 (ATCC no. CRL-1687), colorectal cancer cell lines […], HCT116 (ATCC no. CCL-247EMT), and breast cancer cell lines BT549 (ATCC no. HTB-122), BT20 (ATCC no. HTB-19), and T47D (ATCC no. HTB-133). Cells were maintained in manufacturer-recommended conditions at 37° C. inside humidified 5% CO2 incubators. Sub-cultivation and harvesting for all cell lines were performed using Accutase (GIBCO Life Technologies; cat. no. A1110501) at 37° C. for 10 minutes. Cell viability was measured using trypan blue exclusion staining in conjunction with the Countess II Automated Cell Counter (Thermo Fischer Scientific; cat. no. AMQAX1000). Measurements were made in duplicate and the average number of viable cells was recorded prior to experiments.
T7039), and IL-10 (50 ng/ml; Sigma Aldrich cat. no. SRP3071) were administered to cell lines for various times including 30 minutes, 3 hour, and 24 hour time intervals prior to cell lysis and protein extraction.
To determine the effects of the aforementioned molecules on the modulation of PD-L1, we selected various NSCLC, HNSCC, breast cancer, melanoma, colorectal cancer, and pancreatic cancer cell lines as examples. Other diseases or cell lines could be used readily as could more complex samples such as cells isolated from xenografts and clinical samples. Cells were plated, for three different time points (30 minutes, 3 hours, and 24 hours), inside 6-well petri dishes with 2 mL of appropriate medium. Plates were incubated for 24 hours in 5% CO2 incubators at 37° C. After 24 hours, each 6-well plate was washed with PBS (Gibco Life Technologies, cat. no. 10010023) followed by fresh media being added along with each cell line's vehicle control or appropriate modulator for each specific time point, and were placed in CO2 incubators until their modulation time point was reached. Other conditions can be readily used, such as processing on automated systems such as SnapPath. At the end of each time point, while keeping plates on ice, cell lysis was conducted by aspirating culture medium from each plate, washing of each plate three times with 5 ml of cold PBS (Gibco Life Technologies, cat. no. 10010023) and culminated with the addition of cold 1× lysis buffer containing (Cell Signaling, cat. no. 9803 S) protease inhibitor cocktail (Cell Signaling, cat. no. 5871S), phosphatase inhibitor cocktail (Cell Signaling, cat. no. 5870S), and PMSF (Fisher Scientific, cat. no. ICN19538101). Plates were then placed on ice for ten minutes, swirling each plate intermittently. Aliquots of protein lysates were prepared and then stored at −80° C. until protein quantification and Western blot analysis was to be conducted. The protein concentration of each lysate was analyzed by using the Pierce 660 Protein Assay Reagent (Thermo Fisher Scientific, cat. no. 22660) and testing of each sample was conducted in duplicate. Two μg of protein was then loaded per lane into 10% Midi-PROTEAN TGX Precast Gels (Bio Rad, cat. no. 5671034) along with Kaleidoscope Prestained Protein Standard (BioRad, cat. no. 1610375) which ran at 220V for 45 minutes. Proteins were transferred to mini-PVDF membranes (BioRad, cat. no. 1704156) in 3 minutes using the Trans-Blot Turbo Transfer System (BioRad, cat. no. 1704150EDU).
Background: In western blotting, separated proteins are transferred to a membrane and probed.

B1: IFNγ: human IFNγ, modulator (10 ng/ml; Sigma Aldrich) (protein, UniProt P01579 24-161, looked up)
Interferon gamma: QDPYVKEAENLKKYFNAGHSDVADNGTLFLGILKNWKEESDRKIMQSQIVSFYFKLFKNFKDDQSIQKSVETIKEDMNVKFFNSNKKKRDDFEKLTNYSVTDLNVQRKAIHELIQVMAELSPAAKTGKRKRSQMLFRG
For the molecule B1, the “regulation of PD-L1 across samples” value was “only led to upregulation”.
